According to paper doi:10.64898/2025.12.02.691773:

Target: DH-CRBN (human) (UniProt Q96SW2)
Assay: split reporter
Set-up: unit not given beside the values

Row | Substance | AUC of the growth curve with pomalidomide | AUC of the growth curve without compound (DMSO)
1 | CHD8 full domain (FD) (from UniProt Q9HCK8 1-2581) (domain or fragment) | 5130 | 3220
2 | SPART FD (from UniProt Q8N0X7 1-666) (domain or fragment) | 2800 | 1780
